Earlier results in paper PMC6154725.

Biological target: Tyr7 (UniProt position 9, HHGWGYGQDDG)
Assay: NMR
Conditions: solution, Zn enzyme, no ligand mentioned

## Carbonic anhydrase II (HCA II) (Homo sapiens)
  pKa: ~7
